The values that follow come from patent publication US20230233607A1.

Bounds are passed on as bounds.

The experiment deals with CV1, an engineered high-affinity membrane receptor for CD47. Briefly: flow cytometry; HEK 293T cells with light-induced CV1 incubated with biotinylated CD47, detected by streptavidin-PE. In general terms: A flow cytometer gives signals particle by particle.

Take “Biotinylated CD47 protein (from UniProt Q08722 19-135) (ligand)”: the percent of engineered cells stained with CD47 was over 80%.
